Laboratory results from patent CN113234145A (THE FIFTH AFFILIATED HOSPITAL SUN YAT SEN UNIV; ZHUHAI …, dated 2021).

Experiments:
[1] = biological target: T1, SARS-CoV-2病毒N蛋白(全长) (SARS-CoV-2, UniProt P0DTC9 1-419)
[2] = biological target: MERS-CoV N蛋白 (MERS-CoV, UniProt K9N4V7 1-411); experiment: SPR (Biacore X100), antibody captured as ligand, MERS-CoV N protein as analyte
[3] = biological target: T1, SARS-CoV-2病毒N蛋白(全长); experiment: SPR (Biacore X100), antibody captured as ligand, N protein as analyte
[4] = biological target: SARS-CoV N蛋白 (SARS-CoV, UniProt P59595 1-422); experiment: SPR (Biacore X100), antibody captured as ligand, SARS-CoV N protein as analyte

Binder | EC50 [1] | further results
nCoV400 (antibody, V domains shown) VH: EVQLLESGGGLVQPGGSLRLSCAASGFTFSSYAMSWVRQAPGKGLEWVSVIYSGGSSTYYADSVKGRFTISRDNSKNTLYLQMNSLRAEDTAVYYCAKDHLELSAAGSQINYYYYGMDVWGQGTTVTVSS VL: SYELTQPPSVSVSPGQTARITCSGDALPKQYAYWYQQKPGQAPVLVIYKDSERPSGIPERFSGSSSGTTVTLTISGVQAEDEADYYCQSADSSGTSHWVFGGGTKLTVL | 1110 ng/mL | –
nCoV396 (antibody, V domains shown) VH: QVQLVESGGGVVQPGRSLRLSCAASGFTFSSYIMHWVRQAPGKGLEWVAVISYDGSNEAYADSVKGRFTISRDNSKNTLYLQMSSLRAEDTGVYYCARETGDYSSSWYDSWGRGTLVTVSS VL: QLVLTQSPSASASLGASVKLTCTLSSGHSNYAIAWHQQQPEKGPRYLMKVNSDGSHTKGDGIPDRFSGSSSGAERYLTISSLQSEDEADYYCQTWGTGIQVFGGGTKLTVL | 3.2 ng/mL | Kd [2]: 7.43 nM; Kd [3]: 1.02 nM; Kd [4]: 7.44 nM
nCoV457 (antibody, V domains shown) VH: QVQLVESGGGVVQPGRSLRLSCVASGFTFSRYIIHWVRQAPGKGLEWVAVISYDGTAALYADTVKGRFTISRDNSKNTLYLQMNSLRADDTAVYYCARETGEMSTSYFEYWGQGTLVTVSS VL: QLVLTQSPSASASLGASVKLTCTLSSRHNNYAIAWHQQQPEKGPRFLMKVNSDGSHTKGDGIPDRFSGSSSGAERYLTISSLQSDDEADYYCQTWGTGNQVFGGGTKVTVL | 2.6 ng/mL | –
nCoV425 (antibody, V domains shown) VH: QVQLVESGGGVVQPGRSLRLSCAASGFTFSNYAMHWVRQPPGKGLEWVAIISYEGRTEYADSMKGRFTISRDNSKSAVYLQMNSLRPEDTAVYYCAREVFDISGSWFDYWGQGTLVTVSS VL: QLVLTQSPSASASLGASVKLTCTLSSRHSNYAIAWHQQQPEKGPRYLMKLNSDGSHTKGDGIPDRFSGSSSGAERYLTISSLHSEDEADYYCQTWGTGIQVFGGGTKVTVV | 5.2 ng/mL | –
nCoV454 (antibody, V domains shown) VH: QVQLVESGGGVVQPGGSLRLSCVTSGFTFSNYAMHWVRQAPGKGLEWVAIISYDGSHLYGDSVKGRFTISRDNSKNTLYLEMSSLRNEDTATYYCARETPEVSGSWIDYWGQGALVIVSS VL: QLVLTQSPSASASLGASVNLTCTLTSGHNSYAIAWHQQQPNKGPRYLMKLNSDGSHDKGDGIPDRFSGSSSGTERYLTISSLQSEDEADYYCQTWGTGVQVFGGGTKLTVL | 5 ng/mL | –
nCoV416 (antibody, V domains shown) VH: QVQLVQSGAVLKRPGASVKLSCKASGYIFTSYHIHWVRQAPGQGLEWLGTINPRGDVTAYAQKFQGRVSLTRDTSTTTVYMELSSLRSEDTAIYYCAREHGDVSSSVFDHWGQGTLVSVSS VL: QLVLTQSPSASASLGASIKLTCTLSSGHSNYAIAWHKQQPEKGLRYLMKVNSDGSHNKGDGIPDRFSGSSSGPERYLIISSLQSDDEADYHCQTWASGIQVFGGGTKLTVL | 3.3 ng/mL | –
nCoV433 (antibody, V domains shown) VH: QVQLVESGGGVVQPGRSLRLSCAASGFTFSNYAMHWVRQAPGKGLEWVTIISYDGTNIYEDSVKGRFTISRDNSKNTLYLQMNSLRAEDTAVYYCAREVFDSSGSWFDYWGQGTLVTVSS VL: QLVLTQSPSASASLGASVRLTCSLSSGHRNYAIAWHQQQPEKGPRYLMKLNSDGSHTKGDGVPDRFSGSSSGAERYLTISSLQSEDEADYYCQTWGTGIQVFGGGTKVTVL | 5.3 ng/mL | –
nCoV424 (antibody, V domains shown) VH: QVQLVQSGAEVKKPGASVKLSCKASGYTFSSYYIHWVRQAPGQGLEWLGIINPGGDITAYAQKFQGRVSLTRDTSTSTVYMQLSSLRYEDTAVYYCAREEGDVSTSVFDNWGQGTLVTVSS VL: QLVLTQSPSASASLGASIKLTCTLSSGHRSYAIAWHQQQPGKGPRYLMKLNSDGSHIKGDGVPDRFSGSSSGAERYLSISSLQSEDEADYHCQTWGTGIQVFGGGTRLTVL | 11.8 ng/mL | –
nCoV402 (antibody, V domains shown) VH: QVQLVESGGGVVQPGGSLRLSCAASGFTFSRFTMHWVRQAPGKGLEWVAIISFNGSDKLYVDSVKGRFTVSRDSSKEMLYLQMSSLRHEDTAVYYCARETEDYTSSYFDYWGQGTLVTVSS VL: QLVLTQSPSASASLGASVKLTCTLSSGHNNYAIAWHQQQPQTGPRFLMKVNSDGSHVKGDGIPDRFTGSSSGTGRYLTISSLQSEDEADYYCQTWASGIQVFGGGTKLTVL | 6.3 ng/mL | –
